According to US20100227824A1 (SYMTHERA CANADA, published 2010):

Key:
Assay in all cases: micro-array, phage-presented peptide on printed CK
CTAC (CCL27) = target: T1, CTAC (CCL27) (UniProt Q9Y4X3 25-112)
T1 construct: Bought chemokine
T1 sequence (looked up): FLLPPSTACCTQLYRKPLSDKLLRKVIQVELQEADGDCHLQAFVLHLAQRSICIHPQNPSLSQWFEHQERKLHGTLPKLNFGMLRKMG
Protocol: (§1) (1) Printing: Chemokine (CK) solution (in water) was serially diluted with Print Reagent (GenTel BioSurfaces USA) to final concentrations of 50 μg and 25 μg/ml. BSA/BSA-Biotin control solutions (in water) were diluted with Print Reagent to 100 μg/ml. Amplified stock of M13 phage control (M13KEgIII Cloning Vector, New England Biolabs, Cat.No.E8101S) was stored in Tris Buffered Saline (TBS; pH7.5, 4° C.) and diluted with Print Reagent to the working titre (10^8 pfu/μl). An automated spotting robot (16 pin print tool, 0.4mm head; BioRobotics, UK) was used to print the CK/BSA control/M13 control, 5 repeats per sample (CK 25 μg/ml and 50 μg/ml; BSA 100 μg/ml; M13 20 μl), on PATH Protein Microarray Slides (GenTel, Prod.No.2-1005/-1025) at […], and 50-70% relative humidity. Printed micro-array slides were stored at Room Temperature (RT) or 4° C. for at least 24 h before use.
(§2) (2) Blocking: Block Buffer (500 μl/partition; PATHblock, GenTel, Prod.No.2-1014) was applied to the slide for 1 hour at room temp (RT). After removal of Block Buffer, the slide was air dried for 25 minutes;
(§3) (11) Analysis: Quantitative analysis of micro-array was performed by the SpotReader program of Niles Scientific (USA) and presented as Relative Fluorescence (RF) as a function of CK concentration. Micro-array readout (Cy3 fluorescence) was quantified to determine the relative binding affinities of a CBP for the CKs and by inference, the specificity of the CBP for binding to a CK.

I-TAC (CXCL11) = target: T2, I-TAC (CXCL11) (UniProt O14625 22-94)
T2 construct: Bought chemokine; also called I-TACK
T2 sequence (looked up): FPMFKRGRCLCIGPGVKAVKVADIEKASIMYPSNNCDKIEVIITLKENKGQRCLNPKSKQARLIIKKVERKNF
Protocol: as §1, §2, §3

SDF-1α (CXCL12) = target: T3, SDF-1α (CXCL12) (UniProt P48061-2 22-89)
T3 construct: Alpha isoform of CXCL12; also called SDFα
T3 sequence (P48061 22-89 limits assumed): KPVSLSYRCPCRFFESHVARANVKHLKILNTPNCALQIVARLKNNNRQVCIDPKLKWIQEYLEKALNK
Protocol: as §1, §2, §3

BCA-1 (CXCL13) = target: T4, BCA-1 (CXCL13) (UniProt O43927 23-109)
T4 construct: Bought chemokine
T4 sequence (looked up): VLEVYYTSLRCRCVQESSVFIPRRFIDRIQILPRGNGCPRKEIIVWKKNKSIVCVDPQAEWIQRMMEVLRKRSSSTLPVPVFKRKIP
Protocol: as §1, §2, §3

SDF-1β (CXCL12) = target: T5, SDF-1β (CXCL12) (UniProt P48061 22-93)
T5 construct: Beta isoform of CXCL12; also called SDFβ
T5 sequence (P48061 22-93 limits assumed): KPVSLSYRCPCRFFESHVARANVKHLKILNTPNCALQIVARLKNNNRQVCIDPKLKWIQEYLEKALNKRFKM
Protocol: as §1, §2, §3

IP-10 (CXCL10) = target: T6, IP-10 (CXCL10) (UniProt P02778 22-98)
T6 construct: Bought chemokine
T6 sequence (looked up): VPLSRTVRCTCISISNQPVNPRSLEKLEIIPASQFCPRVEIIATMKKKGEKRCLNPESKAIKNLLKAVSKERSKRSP
Protocol: as §1, §2, §3

Exodus-2 (CCL21) = target: T7, Exodus-2 (CCL21) (UniProt O00585 24-134)
T7 construct: Bought chemokine
T7 sequence (looked up): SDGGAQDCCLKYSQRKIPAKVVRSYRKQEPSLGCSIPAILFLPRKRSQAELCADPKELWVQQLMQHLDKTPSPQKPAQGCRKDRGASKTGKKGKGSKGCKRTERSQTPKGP
Protocol: as §1, §2, §3

Eotaxin 3 (CCL26) = target: T8, Eotaxin 3 (CCL26) (UniProt Q9Y258 24-94)
T8 construct: Bought chemokine
T8 sequence (looked up): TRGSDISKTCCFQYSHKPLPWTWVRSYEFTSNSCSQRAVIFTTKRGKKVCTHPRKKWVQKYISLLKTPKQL
Protocol: as §1, §2, §3

TECK (CCL25) = target: T9, TECK (CCL25) (UniProt O15444 24-150)
T9 construct: Bought chemokine
T9 sequence (looked up): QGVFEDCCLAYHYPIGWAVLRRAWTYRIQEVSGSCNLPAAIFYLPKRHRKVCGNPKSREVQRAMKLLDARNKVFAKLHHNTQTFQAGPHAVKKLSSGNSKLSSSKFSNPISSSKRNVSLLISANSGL
Protocol: as §1, §2, §3

Eotaxin 2 (CCL24) = target: T10, Eotaxin 2 (CCL24) (UniProt O00175 27-104, limits assumed)
T10 construct: Bought chemokine
T10 sequence (looked up): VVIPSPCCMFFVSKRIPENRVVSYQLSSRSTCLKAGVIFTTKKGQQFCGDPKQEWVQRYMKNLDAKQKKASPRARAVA
Protocol: as §1, §2, §3

RANTES (CCL5) = target: T11, RANTES (CCL5) (UniProt P13501 24-91)
T11 construct: Bought chemokine
T11 sequence (looked up): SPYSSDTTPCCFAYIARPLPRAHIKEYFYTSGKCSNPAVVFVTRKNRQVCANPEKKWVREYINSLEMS
Protocol: as §1, §2, §3

I-309 (CCL1) = target: T12, I-309 (CCL1) (UniProt P22362 23-96, limits assumed)
T12 construct: Bought chemokine
T12 sequence (looked up): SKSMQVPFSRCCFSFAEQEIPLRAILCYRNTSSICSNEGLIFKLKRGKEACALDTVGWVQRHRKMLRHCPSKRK
Protocol: as §1, §2, §3

MCP-1 (CCL2) = target: T13, MCP-1 (CCL2) (UniProt P13500 24-99)
T13 construct: Bought chemokine
T13 sequence (P13500 24-99 limits assumed): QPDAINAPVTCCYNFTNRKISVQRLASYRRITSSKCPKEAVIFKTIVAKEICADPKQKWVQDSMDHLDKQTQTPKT
Protocol: as §1, §2, §3

Lymphotactin (XCL-1) = target: T14, Lymphotactin (XCL-1) (UniProt P47992 23-114, limits assumed)
T14 construct: Bought chemokine
T14 sequence (looked up): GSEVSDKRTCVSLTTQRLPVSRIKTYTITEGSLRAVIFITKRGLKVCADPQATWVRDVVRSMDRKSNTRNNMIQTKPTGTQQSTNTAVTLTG
Protocol: as §1, §2, §3

MDC(69aa) (CCL22) = target: T15, MDC(69aa) (CCL22) (UniProt O00626 25-93)
T15 construct: Bought chemokine
T15 sequence (looked up): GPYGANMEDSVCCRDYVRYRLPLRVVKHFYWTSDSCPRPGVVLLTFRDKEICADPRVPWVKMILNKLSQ
Protocol: as §1, §2, §3

Eotaxin (CCL11) = target: T16, Eotaxin (CCL11) (UniProt P51671 24-97)
T16 construct: Bought chemokine
T16 sequence (P51671 24-97 limits assumed): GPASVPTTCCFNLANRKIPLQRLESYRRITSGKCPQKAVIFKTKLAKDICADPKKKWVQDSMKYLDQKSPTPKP
Protocol: as §1, §2, §3

MCP-4 (CCL13) = target: T17, MCP-4 (CCL13) (UniProt Q99616 24-98)
T17 construct: Bought chemokine
T17 sequence (Q99616 24-98 limits assumed): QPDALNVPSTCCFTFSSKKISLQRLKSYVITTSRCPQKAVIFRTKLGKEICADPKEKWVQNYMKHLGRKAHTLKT
Protocol: as §1, §2, §3

MCP-2 (CCL8) = target: T18, MCP-2 (CCL8) (UniProt P80075 24-99)
T18 construct: Bought chemokine
T18 sequence (looked up): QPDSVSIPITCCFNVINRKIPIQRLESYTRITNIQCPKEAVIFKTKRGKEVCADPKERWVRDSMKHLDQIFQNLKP
Protocol: as §1, §2, §3

GRO-β (CXCL2) = target: T19, GRO-β (CXCL2) (UniProt P19875 35-107)
T19 construct: Bought chemokine
T19 sequence (looked up): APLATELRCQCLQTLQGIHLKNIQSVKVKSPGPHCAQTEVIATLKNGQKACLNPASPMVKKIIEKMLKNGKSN
Protocol: as §1, §2, §3

Mig (CXCL9) = target: T20, Mig (CXCL9) (UniProt Q07325 23-125)
T20 construct: Bought chemokine
T20 sequence (looked up): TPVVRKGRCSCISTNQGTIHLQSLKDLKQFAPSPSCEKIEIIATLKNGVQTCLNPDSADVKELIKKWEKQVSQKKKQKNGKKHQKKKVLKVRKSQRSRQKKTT
Protocol: as §1, §2, §3

IL-8 (CXCL8) = target: T21, IL-8 (CXCL8) (UniProt P10145 28-99, limits assumed)
T21 construct: also called IL-8(72aa); IL-8(77aa)
T21 sequence (looked up): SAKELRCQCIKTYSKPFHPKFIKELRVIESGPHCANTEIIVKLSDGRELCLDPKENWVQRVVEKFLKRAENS
Protocol: as §1, §2, §3

Binder	Relative Fluorescence Units (RFU) (I-TAC (CXCL11))	binding result (SDF-1α (CXCL12))	binding result (BCA-1 (CXCL13))	binding result (SDF-1β (CXCL12))	binding result (Exodus-2 (CCL21))	Relative Fluorescence Units (RFU) (Eotaxin 3 (CCL26))	binding result (TECK (CCL25))	Relative Fluorescence Units (RFU) (RANTES (CCL5))	binding result (Lymphotactin (XCL-1))	Relative Fluorescence Units (RFU) (MCP-4 (CCL13))	Relative Fluorescence Units (RFU) (MCP-1 (CCL2))	Relative Fluorescence Units (RFU) (MCP-2 (CCL8))	Relative Fluorescence Units (RFU) (Mig (CXCL9))	Relative Fluorescence Units (RFU) (IL-8 (CXCL8))	Relative Fluorescence Units (RFU) (Eotaxin 2 (CCL24))	Relative Fluorescence Units (RFU) (I-309 (CCL1))	Relative Fluorescence Units (RFU) (Eotaxin (CCL11))	further results
NAMCK [Phage-Presented Peptide 8.11 (Ph-p8.11)]	> 10000	binds	binds	binds	binds	> 10000	binds	–	–	–	–	–	–	–	–	–	–	binding result (CTAC (CCL27)): binds; Relative Fluorescence Units (RFU) (IP-10 (CXCL10)): > 10000 RFU
HHTCSLHFP [Phage-Presented Peptide 16 (Ph-p16)]	–	–	binds	–	–	–	binds	> 15000	binds	> 15000	–	–	–	–	–	–	–	binding result (I-TAC (CXCL11)): binds; binding result (Eotaxin 2 (CCL24)): binds; binding result (I-309 (CCL1)): binds; binding result (MCP-1 (CCL2)): binds; binding result (MDC(69aa) (CCL22)): binds; binding result (Eotaxin (CCL11)): binds; binding result (Eotaxin 3 (CCL26)): binds; binding result (MCP-2 (CCL8)): binds; binding result (GRO-β (CXCL2)): binds; binding result (Mig (CXCL9)): binds
WVFGHGMCK [Phage-Presented Peptide 25 (Ph-p25)]	–	–	binds	–	binds	–	binds	–	binds	> 15000	> 15000	> 15000	> 15000	> 15000	–	–	–	binding result (RANTES (CCL5)): binds; binding result (Eotaxin (CCL11)): binds; Relative Fluorescence Units (RFU) (IP-10 (CXCL10)): > 15000 RFU; binding result (Eotaxin 3 (CCL26)): binds; Relative Fluorescence Units (RFU) (GRO-β (CXCL2)): > 15000 RFU
DYDYGAPC [Phage-Presented Peptide 30 (Ph-p30)]	> 15000	binds	binds	binds	binds	> 15000	binds	> 15000	binds	> 15000	> 15000	> 15000	> 15000	> 15000	> 15000	> 15000	> 15000	binding result (CTAC (CCL27)): binds; binding result (MDC(69aa) (CCL22)): binds
DYDYG [Phage-Presented Peptide 31 (Ph-p31)]	> 15000	binds	binds	binds	binds	> 15000	binds	> 15000	binds	> 15000	> 15000	> 15000	> 15000	> 15000	> 15000	> 15000	> 15000	–
DYDY [Phage-Presented Peptide 32 (Ph-p32)]	> 10000	binds	binds	binds	binds	> 10000	binds	> 10000	binds	> 10000	–	> 10000	> 10000	> 10000	> 10000	> 10000	> 10000	Relative Fluorescence Units (RFU) (GRO-β (CXCL2)): > 10000 RFU
WVFGVHFCK [Phage-Presented Peptide 8.77 (Ph-p8.77)]	> 15000	–	binds	binds	–	> 15000	binds	–	–	> 15000	–	> 15000	> 15000	> 15000	–	> 15000	–	–
